Experimental data: article PMC2756588

How the values were obtained:
Experiment in all cases: SPOT array
[1] = biological target: Sho1, P40073; conditions: median of control spots 1148
[2] = biological target: Bem1-2, P29366; conditions: median of control spots 4347
[3] = biological target: T1, Myo5, Q04439; conditions: median of control spots 471
T1 sequence (Q04439 1072-1160, looked up): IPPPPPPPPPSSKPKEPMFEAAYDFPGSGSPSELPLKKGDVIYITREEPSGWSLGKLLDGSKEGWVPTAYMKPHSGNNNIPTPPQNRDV

[4] = biological target: T2, Boi2, P39969; conditions: median of control spots 1161
T2 sequence (P39969 32-116, looked up): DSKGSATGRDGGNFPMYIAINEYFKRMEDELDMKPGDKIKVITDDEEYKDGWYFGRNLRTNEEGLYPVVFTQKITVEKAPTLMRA

[5] = biological target: T3, Lsb3, P43603; conditions: median of control spots 406
T3 sequence (P43603 385-451, looked up): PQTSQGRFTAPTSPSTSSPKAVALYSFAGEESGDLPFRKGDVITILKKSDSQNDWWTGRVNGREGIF

[6] = biological target: T4, Sla1-2, P32790; conditions: median of control spots 712
T4 sequence (P32790 60-140, looked up): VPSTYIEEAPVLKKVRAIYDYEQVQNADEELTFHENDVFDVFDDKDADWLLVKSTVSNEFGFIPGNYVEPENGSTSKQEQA

[7] = biological target: T5, Lsb4, P32793; conditions: median of control spots 397
T5 sequence (P32793 402-468, looked up): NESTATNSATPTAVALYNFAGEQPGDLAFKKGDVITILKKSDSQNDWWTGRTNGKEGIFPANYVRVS

[8] = biological target: Myo3, P36006; conditions: median of control spots 468
[9] = biological target: T6, Bzz1-2, P38822; conditions: median of control spots 4538
T6 sequence (P38822 568-633, looked up): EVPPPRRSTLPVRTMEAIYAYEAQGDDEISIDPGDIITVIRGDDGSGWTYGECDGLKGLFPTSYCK

[10] = biological target: T7, Boi1, P38041; conditions: median of control spots 1162
T7 sequence (P38041 1-86, looked up): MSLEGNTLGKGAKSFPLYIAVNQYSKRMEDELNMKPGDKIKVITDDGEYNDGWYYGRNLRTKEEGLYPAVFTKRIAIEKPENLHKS

[11] = biological target: Rvs167, P39743; conditions: median of control spots 2707
Chain of Rvs167, P39743 (P39743 419-482): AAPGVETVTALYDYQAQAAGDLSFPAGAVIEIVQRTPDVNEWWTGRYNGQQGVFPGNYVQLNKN

[12] = biological target: GST; conditions: median of control spots 978
[13] = biological target: T8, Cyk3, Q07533; conditions: median of control spots 1451
T8 sequence (Q07533 1-83, looked up): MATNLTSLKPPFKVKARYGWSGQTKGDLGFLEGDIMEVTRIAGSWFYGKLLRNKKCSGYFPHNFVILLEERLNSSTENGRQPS

[14] = biological target: Bem1-1, P29366; conditions: median of control spots 4282
Chain of Bem1-1, P29366 (P29366 55-141): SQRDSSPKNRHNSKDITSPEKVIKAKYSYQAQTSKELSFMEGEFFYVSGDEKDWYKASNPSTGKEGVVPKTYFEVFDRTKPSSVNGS

[15] = biological target: T9, Hse1, P38753; conditions: median of control spots 1727
T9 sequence (P38753 208-285, looked up): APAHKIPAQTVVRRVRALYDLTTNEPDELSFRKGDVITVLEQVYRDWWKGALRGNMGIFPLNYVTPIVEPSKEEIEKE

[16] = biological target: T10, Abp1, P15891; conditions: median of control spots 935
T10 sequence (P15891 535-592, looked up): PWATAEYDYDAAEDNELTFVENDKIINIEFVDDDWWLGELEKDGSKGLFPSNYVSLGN

[17] = biological target: T11, Fus1, P11710; conditions: median of control spots 1200
T11 sequence (P11710 432-512, looked up): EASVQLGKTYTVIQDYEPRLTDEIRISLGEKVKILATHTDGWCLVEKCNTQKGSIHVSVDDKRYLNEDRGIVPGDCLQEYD

[18] = biological target: T12, Cdc25, P04821; conditions: median of control spots 969
T12 sequence (P04821 50-136, looked up): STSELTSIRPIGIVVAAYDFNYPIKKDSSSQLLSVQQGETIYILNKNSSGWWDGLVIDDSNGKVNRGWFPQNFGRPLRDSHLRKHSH

[19] = biological target: T13, Bbc1, P47068; conditions: median of control spots 796
T13 sequence (P47068 1-78, looked up): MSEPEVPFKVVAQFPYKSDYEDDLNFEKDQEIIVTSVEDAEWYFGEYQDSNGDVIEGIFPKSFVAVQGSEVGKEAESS

[20] = biological target: T14, Hof1, Q05080; conditions: median of control spots 4086
T14 sequence (Q05080 590-669, looked up): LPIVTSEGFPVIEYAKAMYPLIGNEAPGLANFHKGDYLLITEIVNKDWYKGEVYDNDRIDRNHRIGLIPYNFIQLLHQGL

[21] = biological target: T15, Pin3, Q06449; conditions: median of control spots 2171
T15 sequence (Q06449 53-122, looked up): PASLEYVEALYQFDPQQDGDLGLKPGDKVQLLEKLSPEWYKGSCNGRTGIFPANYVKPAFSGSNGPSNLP

[22] = biological target: T16, Sla1-3, P32790; conditions: median of control spots 5475
T16 sequence (P32790 344-424, looked up): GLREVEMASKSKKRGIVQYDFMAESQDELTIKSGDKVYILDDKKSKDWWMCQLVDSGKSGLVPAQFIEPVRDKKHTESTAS

[23] = biological target: T17, Bud14, P27637; conditions: median of control spots 956
T17 sequence (P27637 247-328, looked up): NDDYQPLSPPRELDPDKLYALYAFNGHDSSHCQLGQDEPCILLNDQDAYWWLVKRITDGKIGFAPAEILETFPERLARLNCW

[24] = biological target: T18, Bzz1-1, P38822; conditions: median of control spots 4446
T18 sequence (P38822 478-572, looked up): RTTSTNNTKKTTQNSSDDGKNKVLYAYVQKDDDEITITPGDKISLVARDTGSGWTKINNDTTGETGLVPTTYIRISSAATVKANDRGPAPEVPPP

[25] = biological target: T19, Pex13, P80667; conditions: median of control spots 1341
T19 sequence (P80667 295-386, looked up): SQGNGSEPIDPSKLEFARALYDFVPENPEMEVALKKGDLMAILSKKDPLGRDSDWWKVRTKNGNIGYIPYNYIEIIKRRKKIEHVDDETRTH

[26] = biological target: T20, Lsb1, P53281; conditions: median of control spots 388
T20 sequence (P53281 45-122, looked up): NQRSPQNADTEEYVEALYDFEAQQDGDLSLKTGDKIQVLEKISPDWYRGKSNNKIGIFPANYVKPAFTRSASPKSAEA

[27] = biological target: T21, Nbp2, Q12163; conditions: median of control spots 357
T21 sequence (Q12163 103-180, looked up): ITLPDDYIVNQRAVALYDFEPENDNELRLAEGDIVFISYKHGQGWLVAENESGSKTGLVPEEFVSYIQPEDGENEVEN

Chain of Bem1-2, P29366 (P29366 139-227): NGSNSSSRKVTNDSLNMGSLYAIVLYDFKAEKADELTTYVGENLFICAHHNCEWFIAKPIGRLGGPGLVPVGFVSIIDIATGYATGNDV
Chain of Sho1, P40073 (P40073 287-367): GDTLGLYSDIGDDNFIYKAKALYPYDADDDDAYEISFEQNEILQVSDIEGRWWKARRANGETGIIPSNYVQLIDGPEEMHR

Row | Binder | SPOT intensity [1] | SPOT intensity [2] | SPOT intensity [3] | SPOT intensity [4] | SPOT intensity [5] | SPOT intensity [6] | SPOT intensity [7] | SPOT intensity [8] | SPOT intensity [9] | SPOT intensity [10] | SPOT intensity [11] | SPOT intensity [12] | SPOT intensity [13] | SPOT intensity [14] | SPOT intensity [15] | SPOT intensity [16] | SPOT intensity [17] | SPOT intensity [18] | SPOT intensity [19] | SPOT intensity [20] | other results
1 | RSVKRPRRAPRPVVS | 60 | 15 | 1 | 6 | 52 | 6 | 34 | 11 | 3 | 1 | 9 | 4 | 12 | 3 | 8 | 204 | 19 | 20 | 377 | 6 | SPOT intensity [21]: 2; SPOT intensity [22]: 25; SPOT intensity [23]: 12; SPOT intensity [24]: 0; SPOT intensity [25]: 0; SPOT intensity [26]: 94; SPOT intensity [27]: 67
2 | TIRRRAPLSLLESHT | 52 | 4 | 0 | 2 | 0 | 1 | 1 | 0 | 8 | 1 | 3 | 1 | 3 | 2 | 16 | 46 | 3 | 13 | 15 | 4 | SPOT intensity [21]: 11; SPOT intensity [22]: 38; SPOT intensity [23]: 13; SPOT intensity [24]: 3; SPOT intensity [25]: 3; SPOT intensity [26]: 29; SPOT intensity [27]: 11
3 | RMVRRRPLRVQFSAR | 259 | 27 | 10 | 12 | 35 | 37 | 25 | 50 | 16 | 14 | 3 | 9 | 12 | 6 | 41 | 270 | 92 | 94 | 235 | 10 | SPOT intensity [21]: 70; SPOT intensity [22]: 128; SPOT intensity [23]: 36; SPOT intensity [24]: 4; SPOT intensity [25]: 17; SPOT intensity [26]: 60; SPOT intensity [27]: 104
4 | RRTRLRPPTPLSQLL | 39 | 15 | 0 | 0 | 2 | 0 | 1 | 6 | 0 | 0 | 0 | 5 | 7 | 2 | 17 | 103 | 17 | 24 | 348 | 5 | SPOT intensity [21]: 9; SPOT intensity [22]: 35; SPOT intensity [23]: 24; SPOT intensity [24]: 2; SPOT intensity [25]: 4; SPOT intensity [26]: 215; SPOT intensity [27]: 11
